Laboratory results: patent US20080306212A1 (Biogen, published 2008)
Residue numbers refer to the chain shown, from its start. Names and notes keep the numbering of the source.

B1: 1 × 20 kDa PEG-NBN104 (CHO) (ligand)
chain: AAGARGCRLRSQLVPVRALGLGHRSDELVRFRFCSGSCRRARSPHDLSLASLLGAGALRPPPGSRPVSQPCCRPTRYEAVSFMDVNSTWRTVDRLSATACGCLG
modifications: one 20 kDa PEG on the amino-terminal amino acid of one chain (Table 8: 1); glycosylated at amino acid 95 of each chain (95, 95)
B2: 2 × 20 kDa PEG-NBN104 (CHO) (ligand)
chain: B1 chain
modifications: 20 kDa PEG on the amino-terminal amino acid of each chain (Table 8: 1, 1); glycosylated at amino acid 95 of each chain (95, 95)
B3: NBN104 (CHO) (ligand)
chain: B1 chain
modifications: glycosylated at amino acid 95 of each chain (Table 8: 95, 95; numbering of SEQ ID NO:1)
B4: 2 × 10 kDa PEG-NBN (ligand)
chain: AGTRSSRARATDARGCRLRSQLVPVSALGLGHSSDELIRFRFCSGSCRRARSPHDLSLASLLGAGALRSPPGSRPISQPCCRPTRYEAVSFMDVNSTWRTVDHLSATACGCLG
modifications: 10 kDa PEG on the amino-terminal amino acid of each chain (Table 8: 1, 1)
B5: 1 × 20 kDa Branched PEG-NBN (ligand)
chain: B4 chain
modifications: one 20 kDa branched PEG on the amino-terminal amino acid of one of the two chains (Table 8: 1)
B6: 3 × 10 kDa PEG-WT/N95K-NBN106 (ligand)
chain 1: ARATDARGCRLRSQLVPVSALGLGHSSDELIRFRFCSGSCRRARSPHDLSLASLLGAGALRSPPGSRPISQPCCRPTRYEAVSFMDVNSTWRTVDHLSATACGCLG
chain 2: B6 chain 1 with N88K
modifications: 10 kDa PEG on the amino terminus and on Lys95 (Table 8, for the dimer: 1, 1, 95); 10 kDa PEG on the amino terminus (Table 8, for the dimer: 1, 1, 95)
B7: 3 × 10 kDa PEG NBN106-N95K (ligand)
chain: B6 chain 1 with N88K
modifications: three 10 kDa PEG per dimer: both amino termini and one Lys95 (Table 8: 1, 1, 95)
B8: 3(,4) × 10 kDa PEG NBN106-N95K (ligand)
chain: B6 chain 1 with N88K
modifications: 10 kDa SPA-PEG at the amino termini and Lys95, average 3.3 PEG moieties per dimer (Table 8: 1, 1, 95 (,95)); mixture of 2, 3 and 4 PEG adducts
B9: 4 × 10 kDa PEG NBN106-N95K (ligand)
chain: B6 chain 1 with N88K
modifications: 10 kDa PEG on the amino terminus and on Lys95 of each chain (Table 8: 1, 1, 95, 95)
B10: 2 × 20 kDa PEG-NBN (ligand)
chain: B4 chain
modifications: 20 kDa PEG on the amino-terminal amino acid of each chain (Table 8: 1, 1)
B11: wild-type rat neublastin NBN113 (E. coli derived) (ligand)
chain: B4 chain
B12: 2 × 5 kDa PEG-NBN (ligand)
chain: B4 chain
modifications: 5 kDa PEG on the amino-terminal amino acid of each chain (Table 8: PEGylated amino acids 1, 1)
B13: 4 × 5 kDa PEG NBN106-N95K (ligand)
chain: B6 chain 1 with N88K
modifications: 5 kDa PEG on the amino terminus and on Lys95 of each chain (Table 8: 1, 1, 95, 95)

Key:
Test in all cases: cell-based or functional assay
[1] = target: c-Ret (RET receptor tyrosine kinase) on NB41A3-mRL3 cells (UniProt P35546)
[2] = target: T1, c-Ret (RET receptor tyrosine kinase) on NB41A3-mRL3 cells (UniProt P35546 29-1115, limits assumed)
[3] = target: T1, c-Ret (RET receptor tyrosine kinase) on …; remark: listed apart in the source

c-Ret (RET receptor tyrosine kinase) on NB41A3-mRL3 cells (UniProt P35546), sequence (P35546 29-1115 limits assumed): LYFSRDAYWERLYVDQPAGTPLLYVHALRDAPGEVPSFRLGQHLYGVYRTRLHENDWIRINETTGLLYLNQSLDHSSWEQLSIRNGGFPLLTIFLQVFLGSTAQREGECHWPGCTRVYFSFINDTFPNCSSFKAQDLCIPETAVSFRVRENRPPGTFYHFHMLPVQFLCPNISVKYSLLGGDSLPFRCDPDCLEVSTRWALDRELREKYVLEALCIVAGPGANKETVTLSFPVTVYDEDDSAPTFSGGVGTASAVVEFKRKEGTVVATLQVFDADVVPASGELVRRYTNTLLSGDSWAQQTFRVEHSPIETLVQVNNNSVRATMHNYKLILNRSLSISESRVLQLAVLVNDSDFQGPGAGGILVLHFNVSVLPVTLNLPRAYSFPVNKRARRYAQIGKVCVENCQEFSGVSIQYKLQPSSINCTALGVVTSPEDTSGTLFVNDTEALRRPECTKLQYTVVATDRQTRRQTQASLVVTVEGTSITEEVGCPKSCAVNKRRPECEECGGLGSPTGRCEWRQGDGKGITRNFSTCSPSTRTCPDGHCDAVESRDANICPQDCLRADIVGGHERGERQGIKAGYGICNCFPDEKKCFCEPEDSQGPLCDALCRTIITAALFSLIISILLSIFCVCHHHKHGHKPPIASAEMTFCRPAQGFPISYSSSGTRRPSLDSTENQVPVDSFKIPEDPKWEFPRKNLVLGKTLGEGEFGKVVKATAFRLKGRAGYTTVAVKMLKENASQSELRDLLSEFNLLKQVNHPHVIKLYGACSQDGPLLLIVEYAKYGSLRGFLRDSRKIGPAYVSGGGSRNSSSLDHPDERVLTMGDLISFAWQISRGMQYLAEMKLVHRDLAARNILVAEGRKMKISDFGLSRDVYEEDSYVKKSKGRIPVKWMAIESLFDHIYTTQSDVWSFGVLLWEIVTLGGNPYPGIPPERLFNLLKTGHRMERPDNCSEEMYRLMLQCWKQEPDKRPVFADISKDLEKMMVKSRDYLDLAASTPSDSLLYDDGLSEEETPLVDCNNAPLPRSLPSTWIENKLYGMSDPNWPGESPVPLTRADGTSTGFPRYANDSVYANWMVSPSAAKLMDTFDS
T1 sequence (P35546 29-1115 limits assumed): as above

KIRA:~ EC50 [1] | KIRA:~ Max Efficacy vs WT [1] | KIRA:~ EC50 [2] | KIRA:~ Max Efficacy vs WT [2] | potency in the KIRA ELISA relative to wild-type NBN113 [3] | Binder
0.3 nM | 110% | – | – | – | B1
1 nM | 105% | – | – | – | B2
0.7 nM | 90% | – | – | – | B3
– | – | ~0.2 nM | ~72% | – | B4
– | – | ~0.2 nM | ~83% | – | B5
– | – | ~0.7 nM | ~115% | – | B6
– | – | ~0.8 nM | ~100% | – | B7
– | – | ~1.6 nM | ~90% | – | B8
– | – | ~11 nM | > 80% | ~10 fold less potent | B9
– | – | ~0.6 nM | ~80% | – | B10
– | – | – | ~100% | – | B11
– | – | ~0.2 nM | ~105% | – | B12
– | – | ~1 nM | ~80% | – | B13
